Test: label from the status in PepcDB records
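Further: failed if final PepcDB status was selected cloned or expressed and not failed if soluble or beyond.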

Row | Sequence | protein production
1 | MFYPDPFDVIIIGGGHAGTEAAMAAARMGQQTLLLTHNIDTLGQMSCNPAIGGIGKGHLVKEVDALGGLMAKAIDQAGIQFRILNASKGPAVRATRAQADRVLYRQAVRTALENQPNLMIFQQAVEDLIVENDRVVGAVTQMGLKFRAKAVVLTVGTFLDGKIHIGLDNYSGGRAGDPPSIPLSRRLRELPLRVGRLKTGTPPRIDARTIDFSVLAQQHGDNPMPVFSFMGNASQHPQQVPCYITHTNEKTHDVIRSNLDRSPMYAGVIEGVGPRYCPSIEDKVMRFADRNQHQIFLEPEGLTSNEIYPNGISTSLPFDVQMQIVRSMQGMENAKIVRPGYAIEYDFFDPRDLKPTLESKFIQGLFFAGQINGTTGYEEAAAQGLLAGLNAARLSDDKEGWAPARSQAYLGVLVDDLCTLGTKEPYRMFTSRAEYRLMLREDNADLRLTEIGRELGLVDDERWARFNEKLENIERERQRLKSTWVTPSAEAAAEVNAHLTAPLSREASGEDLLRRPEMTYEKLTTLTPFAPALTDEQAAEQVEIQVKYEGYIARQQDEIEKQLRNENTLLPATLDYRQVSGLSNEVIAKLNDHKPASIGQASRISGVTPAAISILLVWLKKQGMLRRSA | not failed
2 | MADETNALRQKNRELNKKIDWQKDYDREKLERDNRDLEQCKEDLLAANENLRNRIQEWENEKNKLDPRDERIKELEEEKRELEGILAQKENAEQKYNTLSVKNKQLEAELDMLNEKFEKLKNMYAGVEDFEKRQKNIKEQIVKTNPKVLGAPSNEVEELAFLERIEKGMQEFNVFYPKRLLYMFHTALKSTSLSPLSVLSGVSGTGKSELPKLYVHFGGLNFLSIAVQPTWDSPESLMGYFHAIENKFDATEFLRFFIQTTLSNNEEPYGLKEAMSIVLLDEMNLAHIELYFAEFLSKLEIKCSQETNISIKLGTGLTWELPLGDNLLFVGTMNEDESTKMLSDKVLDRAFCLNFERPKILKGKQQKPIPSNDGYLKVETFNRWINKKGDQEAKLEGKYKKLTEEINERLDACGRSIGHRVWQSMSTYMHNHPLVLHASDKNKALQFAYEECLVLKIFPKLRGVQTRNNQHLTKIQDLLKDFSVSSDFKQAMENDFKEFVFNSTNYLNNVEYEKLLKK | failed
3 | GERRKDRPYVEEPRHVKVQKGSEPLGISIVSGEKGGIYVSKVTVGSIAHQAGLEYGDQLLEFNGINLRSATEQQARLIIGQQCDTITILAQYNPHVHQLSSHSR | not failed
4 | MQSPPHDPASALAIRNHYRQSQSRAARLRLLVDTGQELIQLPPEAMRKCVLQRACAFVAMDHGLLLEWGADNGVQTTARHGSKERLSTLETTADPLAIGPQWLERPGTHLPCVLLLPLRGADEGSFGTLVLANSVAISAPDGEDIESLQLLATLLAAHLENNRLLEALVARDRTMSQLVRQLFTAQEDERKRVAYDLHDGLAQTLAGLHQRLQGFAGRCPELPAQLDADLQAILKLAQHCVGEGRQLISGLRPAVLDDFGLWQAVDKEADRLREAGIIVQWTSQSLERLPSHLEIALFRIAQEGINNVLKHANASCVELALELSDGNVSLRLQDNGRGFITEKPINGTGVQKLGLVAMQERASLLGGRLTCVSRPGRGTRLRTIVPFTADKAIT | failed
5 | METYDVLVVGGGPGGSTAARYAAKYGLKTLMIEKRPEIGSPVRCGEGLSKGILNEADIKADRSFIANEVKGARIYGPSEKRPIILQSEKAGNEVGYVLERDKFDKHLAALAAKAGADVWVKSPALGVIKENGKVAGAKIRHNNEIVDVRAKMVIAADGFESEFGRWAGLKSVILARNDIISALQYRMINVDVDPDYTDFYLGSIAPAGYIWVFPKGEGMANVGIGSSINWIHNRFELKNYLDRFIENHPGLKKGQDIQLVTGGVSVSKVKMPITMPGLMLVGDAARLIDPITGGGIANAIVSGMYAAQVTKEAIESNDYSPQMMQKYEKLIKERFERKHLRNWVAKEKLAMLSDDTLDKLVDIVSEQVLTTISVEAILKAIAEKYPEVVKELEDLI | not failed
6 | MTRQRNREGLEFTAANAQAVEAFDETVKRYLQFHGDIGGALKATFAHDAQMPMALILRGYFYLLMGLRPLADKAAQLAAGLQPGRAALTEREQRHLDALACWSRDSLQAATEHWERIARAHPRDILAVKMAHFGYFYLGRSARIRDGIAQAIDSWSEDDALYPYMLSMMAFGQVEAGELARGEASGRRALELTPHDPWAVHAVAHALEPTDRKADALAWIARHERHWSEANNFRHHIHWHRALIHLEQGDAQAALDWYDRTVFAADSVEYLDVCNEASLLMRLELSGVDVGRRWEAVAQKSAARIDDQVMGFADVHYAMALCSSANPEHRQQAQALAERLERYSQGGTDNAQAYRQAVVPIVGALLAFRQGRYRESADALLACADVAHAAGGSHDQRDVYEYLTAEALFRAAPAHPDTIAYLARRSFRAPHNPHNWRLYLQSLEQSGQDRTLAAATARRQAAAHATA | failed
7 | MAYLVFAYLVGSLVAGLLFFPEVRGKDLPGGSGVFRRKGPWAALLAVAFDLGKGALVALLTPEAYLPWAGALLVAGHTWPVFFRFRGGGGIAPSLGFFLVWRPAETLWATLFGLGVAGLYHLLFWRRRRKGIYPIPFGAIFGYLLLVYTLSGEARLGALLVAGVVLLRGLQILAGRW | failed
8 | MENFAEIVGIGPAGVISITGGGGKTSLMFHLARQLAYSGKRVLTTTTTKILAPSVEESRTLLISQDPQVILRHAKAHPGPGVHVSAAAGHIPHTEKLQGFPREAIRTFEDSGEFDWVVVEADGAARKPLKAPAAHEPVIPGNSTIVVALAGLEVLGRPLGEEMVFRSELAGELMQIPQGETITVPALARLLAHPSGGFKGAPPQARRFIFLNKADTPELQEKGGEVALQLKEIAPSVAEAVIVGQLRQEITLHRVYPRGELEHHHHHH | not failed
9 | SKGRPQIDSSKATDKINPMDFTFVEINEAVKLVEMGVATPQDIDTAIKLGLNRPFGPFELAKQFGAEQIAKRLEELAKQFGKKIFEPAKTLKEGKLEELLKAGKAE | not failed
10 | MKGIKSACALIVLTFFSALTQAATAVEMAKQAYFLIERDPLDLDQRNEASYLIQRANVLDGDEPWVAVAQSRLTLVSGYKVGQRHDRRAYEESAVSTARQQAERAVRNGPNLAMAHVQLAMVLIIQGELRTAWDHLNTADSLDEQSFYPWYLRTVIAIHHKDEKFAAEGFKEIESRASQKYQKRLLLHERMRLAKATKNLEERDRLHRKMIELDPDYAYAWGNYGSFLLGQKRYREAVHNLERAVELKPYGLAVSQLAEARRKLNQAF | failed
11 | MLSATSLKIIFAVSIFIVILIAGWYPFKKRLKDDKHIDFPIGETLATGVFLGAALLHMLPESNTLFKEMGYNYPFAFIITGVVFLIFLWFEHLGKELYHHHDAEHPAFAILAWAMLSVHSLMLGAALGFTQYNSMIIMLFLAIITHKWAESLAIAIQLNKSSMSTRKSMVFFFFFSLMTPLGIYFGWYFGHGVETNSLFDPILIAASAGTFLYLGTLHGLERCVMVERCCNLSDFSFVIIGFLLMASVAIYV | failed
12 | MDNITNESDNLIQIFSHNPLALISCIILGIGLLFTFASRQFILVRVLLGNVSFIKQRILGVIFGIVGALLLLFATGNLNL | failed
13 | MEKSSFAAANMTIMSEPTTPTSQAHDSGASANVIATVETEIRQTARFPTRWTAISSALVVLLCVLALILVPIPFVARSPGQTVNLLSTNERGKPMIQVDGLTTRHGEGEMRMTTVSITRADSRLSMAEALVAHLRADHDVLQREAIYPPGRSPQQVDADESYMMDTSERDAAVAALRAAGQPVTEMPMVSAVSAAGPAHGKLAPGDLIEKVDGKPMASVLDVGKAVRKHTVGDTVVFVVLRNSSVKTIAVTTVSSVSDRRAPAVGVTIDTGYRYTPTITYNIPGDIVGPSAGLAMALSIYQMVAPNDLIGSLRIAGTGGISPDGNVVAIGGIQEKIAGAERDGAKIFLVPAGNCRDISGVETSMRLVKVSSLKDAIAAIQKIRAGGTGIPHC | failed
14 | MANKFSAAVVYAVFSSFALNFFYQPGHVYASGATGAAQVVTELVARISGHNILPISASLILVNAPLFILAWRGIGKQFTVYTVITVVMSSVFIHFIPVTPLTHEPVINAVFGGAIMGFGVGNAMKSGISSGGTDIVSLYMRKKTGRSVGTLAFLVNGVIIFTAGVLFGWEYMLYSLIAIFVNSRVQDAIFTRQKRLQVMIVTKNPELLTKKLVNRFKHGVTILHDAEGGYTHTSQTVLMTVITMYEYQEFKDIIQKYDEHAFVSISENVRVLGKFAEVED | failed
15 | HKEDKEDFAELSGIAVPAEITAEDGTMFKEALLFTHRGLSGPSVLQISSFWKAGQKVSINLVPNEDIALLLERSLEKHPNQSLKNTLAKVLPKRLVEVLIERKELMDKPLKQFNPKELASVVERLENWSIAPNGTEGYRTAEVTLGGVDTDHLSSKTMECKNIKGLYFIGEVMDVTGWLGGYNFQWCWSSGFVAGQWV | failed
16 | MTEFALDTSTGITIIVLFGVFWVAFGYWLGRKNRSHEDFALAGRNVGFAFAAATAMATWVTSNTTLVAPQLTYQFGIWGMVGYSFAALGLVLFAPMAKRIKELLPNGYTSGDFVRLRYGNLAWLVFIIISVVYAFGWLISLGMAGGILLESLSGLDYHIGMTTILVICVGYTLFGGMRAVIATDFIQALIIIVGVSFIAYWIIDNVGLESIHSNLTSEHPQLLDMLFPAAVMFLFNNIFFGLGEIFHSNVWWSRALSFKKNVAYKAYLTGGLLWLPIPIVTGFIALAAPQLGIFPPSPDMIGPTVAAAVLGKAGAIIVFIVIFSALASSLDSLLAATSDLVTQDIFHKKLKPKASDKTLMRFNRSCILGLGVVTWLLCLPRVATLGALLNFAGAFVASTIWPIVLGLYHRRLTGTYAACAMGFGTAFGMLSYFVVGFYVAALVSCAVSGLICLVGIFRSSDKFDWDTLNEKEQSNANQ | failed
17 | MAGLAISPPLGLSFSSRTRNPKPTSFLSHNQRNPIRRIVSALQSPYGDSLKAGLSSNVSGSPIKIDNKAPRFGVIEAKKGNPPVMPSVMTPGGPLDLSSVLFRNRIIFIGQPINAQVAQRVISQLVTLASIDDKSDILMYLNCPGGSTYSVLAIYDCMSWIKPKVGTVAFGVAASQGALLLAGGEKGMRYAMPNTRVMIHQPQTGCGGHVEDVRRQVNEAIEARQKIDRMYAAFTGQPLEKVQQYTERDRFLSASEALEFGLIDGLLETEY | not failed
18 | MGDSKGRVASAAVSLAEFLESCAGKWFSQRTSYRLGATQDWHQSDQTTLFVDFLAADAPELQALIAEQGLAIAALQSRWEATPQQPASTSLLVFLAEGDRLVHQRGDRCWQGRYQFEGDHRGLTLTTEQPDGQVEERFWFAHPNLRLRTSLIRDRTGLSRSSFYSEIRLGVKPPEPPAEV | failed
19 | MRMKHLTVAALTLLLSVSCSQRQEDYPFRNPDLPIDERIDDLLKRLTAEEKIGQMMNTTPAIERLGIPEYDWWNEALHGVARAGKATVFPQAIAMAATFDDDALYETFTMVSDEARAKYHQYQKNKEYDRYKGLTFWTPNINIFRDPRWGRGMETYGEDPYLTERMGVAVVKGLQGDDPKYFKTHACAKHYAVHSGPEWNRHEFDVTVTPRDLWQTYLPAFEALVKKGNVQEVMCAYNRYQGKPCCSSDKLLIDILRNSWGYENIILSDCGAINDFWQRDERTPRHETHPDAESASADAVLNGTDLECGNSYKALIKALKEGKISENDLDVSLRRLLKGRFELGMFDPDERVPYAQIPYNVVESPEHVAQALEMAHKSMVLLKNKNNTLPLSKTIRKIAVVGPNAADSTMLWANYNGFPTHTVTILEGIRNKVPDTEVIYELGCNHAADFVIQDLGNHITSPAGQGFASEFYNNTEFKGEAVYKGLASQLHYTTGGNTQFAPNVNLTNFTARFTGEFEAPETEQVEIKLSGNDAFRLFIGDEKVAEVWENEYGAEKTYMLNAEKGKKYPVKIEYMQRTGSADLNFQIGTRRPVDYAATAAKVKDADVIVYVGGISPRLEGEEMPVNVEGFKKGDRTNIEIPKVQQEMVKALKATGKPVVYVLCTGSALALNWEDANIDAILNAWYGGQEAGTAVADILFGDYNPSGRLPVTFYKSIDQLPDFEDYSMKGRTYRYMTETPLYPFGYGLSYTNFAYRNAKLSSGKITKDQSVTLTFDIANTGKMDGDEVAQIYIKNPNDPEGPIKALKAFLRVHVKAGDSQEVNIELTPEAFHSFNDNTQTMEVRPGKYQILYGGSSDEKALERLELTIE | failed

— a protein production outcome set (Wang et al. 2014)
